The experiment concerns the target soluble gp34 wild type ectodomain, V5-His tagged (sgp34wt-V5-His) (HCMV strain AD169). Briefly: blocking of sgp34wt binding to immobilized human IgG, ELISA.

Consider mouse IgG1 isotype antibody, for which the IC50 is 9.69 µg/mL.

The term IC50 denotes the concentration that gives 50% inhibition. High values mean weaker potency in that assay, low ones greater potency in that assay.
